According to patent US20200079848A1 (Five Prime, published 2020):
Where “and” joins values, the source holds several entries; their conditions need not be identical. Equal values may be shown once.

Tests used:
[1] = target: T1, human ILT4 (hILT4) expressed on cells (human, UniProt Q8N423 22-597); assay: antibody titration flow cytometry binding assay on transfected cells, nonlinear regression
T1 construct: hILT4 on transfected CHO or 293T cells, or native on human monocytes and macrophages; also called LILRB2

rhILT4-Fc [2] = target: T2, rhILT4-Fc (human, UniProt Q8N423-1 22-461); assay: flow cytometry blocking assay: antibody titrated (12 points) with rhILT4-Fc fixed at 30 µg/ml; rhILT4-Fc bound to HLA-B overexpressing CHO cells read as % Positive; blocked ligand: HLA-B; the IC50 table has no unit, the concentration axis is in ug/mL
T2 construct: also called rhILT4-Fc fusion protein with a murine Fc tail; not shown: murine Fc tail

human LILRA6 = target: T3, human LILRA6 (human, UniProt Q6PI73 24-481); assay: flow cytometry, 293T transfectants, antibody 20 µg/ml; stacked histograms, control: parental cells
T3 construct: whole, on cells; also called hLILRA6
Protocol: (§1) Individual ILT family members were overexpressed in 293T cells. Each transfectant was stained with 20 μg/ml of anti-ILT4 antibodies followed by 1 μg/ml of anti-human IgG secondary mAb. Binding of the antibodies to each transfectant was measured by flow cytometry.

human LIR8 = target: T4, human LIR8 (human, UniProt O75023 24-590); assay: as above
T4 construct: whole, on cells; also called hLIR8
Protocol: as §1

human LILRA1 = target: T5, human LILRA1 (human, UniProt O75019 17-489); assay: as above
T5 construct: whole, on cells; also called hLILRA1; LIRA1
Protocol: as §1

human LILRA2 = target: T6, human LILRA2 (human, UniProt Q8N149 24-483); assay: as above
T6 construct: whole, on cells; also called hLILRA2
Protocol: as §1

human ILT2 = target: T7, human ILT2 (human, UniProt Q8NHL6 24-650); assay: as above
T7 construct: whole, on cells; also called hILT2
Protocol: as §1

human ILT3 = target: T8, human ILT3 (human, UniProt Q8NHJ6 22-448); assay: as above
T8 construct: whole, on cells; also called hILT3
Protocol: as §1

human LILRA3 = target: T9, human LILRA3 (human, UniProt Q8N6C8 24-439); assay: as above
T9 construct: whole, on cells; also called hLILRA3; LIRA3
Protocol: as §1

human LILRA4 = target: T10, human LILRA4 (human, UniProt P59901 24-499); assay: as above
T10 construct: whole, on cells; also called hLILRA4
Protocol: as §1

human ILT5 = target: T11, human ILT5 (human, UniProt O75022 24-631); assay: as above
T11 construct: whole, on cells; also called hILT5; LILRB3
Protocol: as §1

rhILT4-Fc [3] = target: T2, rhILT4-Fc; assay: flow cytometry blocking assay: antibody titrated (12 points) with rhILT4-Fc fixed at 30 µg/ml; rhILT4-Fc bound to HLA-A overexpressing CHO cells read as % Positive; blocked ligand: HLA-A; the IC50 table has no unit, the concentration axis is in ug/mL
hILT4-His-Avi tag [4] = target: T12, hILT4-His-Avi tag (human, UniProt Q8N423 22-459); assay: SPR Biacore T200, 37 C; antibody captured on protein A/G chip, monomeric hILT4 as analyte; kinetic fit
T12 construct: also called monomeric human ILT4; extracellular region of hILT4 linked to a His-Avi tag
Protocol: (§2) The binding kinetics of the parent and germline reversion mutant anti-hILT4 antibodies (in the context of IgG1.3) were measured via Surface Plasmon Resonance (SPR) using a Biacore® T200 instrument. The assay temperature was 37° C. and the running buffer was PBS pH 7.4 supplemented with 0.05% Tween-20. Allanti-hILT4 antibodies were captured on a CM4 chip with pre-immobilized protein A/G (Pierce Thermo Scientific catalog number 21186). […] Monomeric human ILT4 was injected as analyte. […] The hILT4 used in this experiment, comprising the extracellular region of hILT4 linked to a His-Avi tag, consists of the following amino acid sequence: […]

[5] = target: T1, human ILT4 (hILT4) expressed on cells; assay: flow cytometry on human monocytes of a healthy donor, directly labelled antibody, GMFI; EC50 from the table below the graph; the table has no unit, the concentration axis is in ug/mL
Excerpt: In FIG. 18B, monocytes selected from a normal healthy donor's peripheral blood were stained with individual anti-ILT4 antibodies conjugated to […].

hILT4-His-Avi tag [6] = target: T12, hILT4-His-Avi tag; assay: SPR Biacore T200, 37 C; antibody captured on protein A/G chip, monomeric hILT4 as analyte; steady state fit
Protocol: as §2

human LILRA5 = target: T13, human LILRA5 (human, UniProt A6NI73 42-299); assay: flow cytometry, 293T transfectants, antibody 20 µg/ml; stacked histograms, control: parental cells
T13 construct: whole, on cells; also called hLILRA5
Protocol: as §1

[7] = target: T1, human ILT4 (hILT4) expressed on cells; assay: flow cytometry cross-blocking on hILT4 CHO cells: unlabelled antibody titrated from 40 µg/mL, then PE-21D9.IgG1.1f at 1.5 µg/mL; competitor: PE-21D9; GMFI (PE) falls from about 595 to about 60; the table calls the value EC50 and has no unit, the concentration axis is in µg/mL
Excerpt: (§3) After washing, the samples were acquired on a FACSCanto™ cytometer (BD Bioscience, San Jose) and analyzed with Flowjo™ software (Tree Star, Inc, Ashland, Oreg.).

[8] = target: T1, human ILT4 (hILT4) expressed on cells; assay: flow cytometry cross-blocking on hILT4 CHO cells: unlabelled antibody titrated from 40 µg/mL, then PE-2H2.IgG1.1f at 1.5 µg/mL; competitor: PE-2H2; GMFI (PE) falls from about 310 to about 45; the table calls the value EC50 and has no unit, the concentration axis is in µg/mL
Excerpt: as §3

hILT4-His-Avi tag [9] = target: T12, hILT4-His-Avi tag; assay: SPR Biacore T200, 37 C; antibody captured by anti-human Fc on CM4 chip, hILT4-His-Avi as analyte; 1:1 Langmuir fit
Protocol: The running buffer was 10 mM HEPES pH 7.4 supplemented with 0.05% Tween-20 and 1 g/L BSA. All anti-ILT4 antibodies were captured on a CM4 chip with pre-immobilized anti-human Fc capture antibody from Southern Biotech (catalog number 2081-01). […] All data were double-referenced and fitted to a 1:1 Langmuir model with mass transport using Biacore T200 Evaluation Software version 3.1.

[10] = target: T1, human ILT4 (hILT4) expressed on cells; assay: flow cytometry on hILT4-transfected CHO cells, PE anti-human IgG secondary, GMFI (PE); EC50 from the table below the graph; the table has no unit, the concentration axis is in ug/mL
rhILT4-Fc [11] = target: T2, rhILT4-Fc; assay: flow cytometry blocking assay: antibody titrated (12 points) with rhILT4-Fc fixed at 30 µg/ml; rhILT4-Fc bound to HLA-B overexpressing CHO cells read as % Positive; blocked ligand: HLA-B; the IC50 table has no unit, the concentration axis is in ug/mL; remark: listed apart in the source
rhILT4-Fc [12] = target: T2, rhILT4-Fc; assay: flow cytometry blocking assay: antibody titrated (12 points) with rhILT4-Fc fixed at 30 µg/ml; rhILT4-Fc bound to HLA-A overexpressing CHO cells read as % Positive; blocked ligand: HLA-A; the IC50 table has no unit, the concentration axis is in ug/mL; remark: listed apart in the source
hILT4-His-Avi tag [13] = target: T12, hILT4-His-Avi tag; assay: SPR Biacore T200, 37 C; antibody captured on protein A/G chip, monomeric hILT4 as analyte
Protocol: as §2

T12 sequence (Q8N423 other isoform, or with tags, fused parts or gaps): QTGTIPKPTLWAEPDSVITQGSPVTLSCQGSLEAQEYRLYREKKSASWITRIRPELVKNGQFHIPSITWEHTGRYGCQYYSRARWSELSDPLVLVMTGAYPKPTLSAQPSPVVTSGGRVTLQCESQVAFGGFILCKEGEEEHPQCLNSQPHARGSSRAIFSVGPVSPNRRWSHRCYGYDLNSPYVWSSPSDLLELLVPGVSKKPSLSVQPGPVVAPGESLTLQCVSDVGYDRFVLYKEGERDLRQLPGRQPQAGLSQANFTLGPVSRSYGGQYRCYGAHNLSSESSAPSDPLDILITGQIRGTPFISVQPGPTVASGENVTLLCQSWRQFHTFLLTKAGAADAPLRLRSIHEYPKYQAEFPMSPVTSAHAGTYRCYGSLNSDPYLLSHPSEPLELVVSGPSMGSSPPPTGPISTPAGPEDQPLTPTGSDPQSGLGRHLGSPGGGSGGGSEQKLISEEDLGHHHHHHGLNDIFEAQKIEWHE
T2 sequence (Q8N423 other isoform, or with tags, fused parts or gaps): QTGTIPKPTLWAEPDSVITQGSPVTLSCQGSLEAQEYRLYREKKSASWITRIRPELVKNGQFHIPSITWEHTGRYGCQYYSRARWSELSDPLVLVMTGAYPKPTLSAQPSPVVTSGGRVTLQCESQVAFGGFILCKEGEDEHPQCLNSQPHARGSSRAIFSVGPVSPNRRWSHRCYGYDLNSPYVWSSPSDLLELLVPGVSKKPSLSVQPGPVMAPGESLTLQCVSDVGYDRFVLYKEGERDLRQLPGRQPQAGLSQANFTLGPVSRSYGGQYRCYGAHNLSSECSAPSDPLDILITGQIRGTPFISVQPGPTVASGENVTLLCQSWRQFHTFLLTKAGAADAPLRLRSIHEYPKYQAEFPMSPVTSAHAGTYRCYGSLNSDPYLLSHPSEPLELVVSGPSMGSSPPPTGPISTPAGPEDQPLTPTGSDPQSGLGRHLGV
T1 sequence (Q8N423 other isoform, or with tags, fused parts or gaps): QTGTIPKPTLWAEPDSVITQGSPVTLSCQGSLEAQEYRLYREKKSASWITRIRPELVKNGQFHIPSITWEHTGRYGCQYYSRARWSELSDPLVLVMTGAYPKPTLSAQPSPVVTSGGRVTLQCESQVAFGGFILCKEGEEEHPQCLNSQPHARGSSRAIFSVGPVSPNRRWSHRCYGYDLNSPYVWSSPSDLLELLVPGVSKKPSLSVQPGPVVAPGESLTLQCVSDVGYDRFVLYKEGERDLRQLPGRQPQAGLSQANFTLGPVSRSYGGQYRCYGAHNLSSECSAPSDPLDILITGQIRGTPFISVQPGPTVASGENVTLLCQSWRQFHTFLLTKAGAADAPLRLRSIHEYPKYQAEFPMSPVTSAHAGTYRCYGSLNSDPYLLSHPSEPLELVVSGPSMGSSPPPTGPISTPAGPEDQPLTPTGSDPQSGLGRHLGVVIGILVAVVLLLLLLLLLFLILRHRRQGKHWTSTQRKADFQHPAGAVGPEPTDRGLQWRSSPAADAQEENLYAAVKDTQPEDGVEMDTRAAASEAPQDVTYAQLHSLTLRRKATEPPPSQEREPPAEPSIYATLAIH
T7 sequence (Q8NHL6 24-650): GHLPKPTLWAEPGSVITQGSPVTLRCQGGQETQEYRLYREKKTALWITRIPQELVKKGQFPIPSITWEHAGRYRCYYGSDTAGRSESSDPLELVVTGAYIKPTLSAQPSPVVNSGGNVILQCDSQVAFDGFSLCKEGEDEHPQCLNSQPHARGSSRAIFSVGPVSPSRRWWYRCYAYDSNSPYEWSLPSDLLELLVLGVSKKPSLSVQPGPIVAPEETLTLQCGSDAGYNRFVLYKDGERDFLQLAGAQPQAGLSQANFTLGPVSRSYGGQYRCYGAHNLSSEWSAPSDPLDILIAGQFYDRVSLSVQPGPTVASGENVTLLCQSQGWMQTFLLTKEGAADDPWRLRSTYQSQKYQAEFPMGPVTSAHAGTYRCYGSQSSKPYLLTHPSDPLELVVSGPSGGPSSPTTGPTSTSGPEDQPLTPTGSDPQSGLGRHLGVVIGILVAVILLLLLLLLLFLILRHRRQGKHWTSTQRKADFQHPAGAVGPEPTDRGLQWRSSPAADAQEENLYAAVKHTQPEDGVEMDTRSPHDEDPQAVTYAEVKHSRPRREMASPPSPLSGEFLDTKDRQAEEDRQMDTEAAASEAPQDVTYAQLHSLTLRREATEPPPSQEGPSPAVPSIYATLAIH
T5 sequence (O75019 17-489): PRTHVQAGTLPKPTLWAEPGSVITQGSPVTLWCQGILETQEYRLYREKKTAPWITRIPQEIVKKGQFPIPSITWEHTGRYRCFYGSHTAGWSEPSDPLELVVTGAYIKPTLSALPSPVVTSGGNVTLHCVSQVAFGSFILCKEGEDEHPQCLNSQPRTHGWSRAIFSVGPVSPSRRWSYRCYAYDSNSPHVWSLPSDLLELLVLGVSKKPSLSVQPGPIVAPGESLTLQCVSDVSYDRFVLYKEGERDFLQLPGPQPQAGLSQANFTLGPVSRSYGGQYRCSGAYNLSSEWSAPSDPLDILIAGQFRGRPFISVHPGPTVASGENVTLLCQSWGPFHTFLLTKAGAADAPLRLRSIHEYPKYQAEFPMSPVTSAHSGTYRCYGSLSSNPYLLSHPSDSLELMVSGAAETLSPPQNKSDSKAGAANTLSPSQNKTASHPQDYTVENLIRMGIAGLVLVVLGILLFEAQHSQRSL
T10 sequence (P59901 24-499): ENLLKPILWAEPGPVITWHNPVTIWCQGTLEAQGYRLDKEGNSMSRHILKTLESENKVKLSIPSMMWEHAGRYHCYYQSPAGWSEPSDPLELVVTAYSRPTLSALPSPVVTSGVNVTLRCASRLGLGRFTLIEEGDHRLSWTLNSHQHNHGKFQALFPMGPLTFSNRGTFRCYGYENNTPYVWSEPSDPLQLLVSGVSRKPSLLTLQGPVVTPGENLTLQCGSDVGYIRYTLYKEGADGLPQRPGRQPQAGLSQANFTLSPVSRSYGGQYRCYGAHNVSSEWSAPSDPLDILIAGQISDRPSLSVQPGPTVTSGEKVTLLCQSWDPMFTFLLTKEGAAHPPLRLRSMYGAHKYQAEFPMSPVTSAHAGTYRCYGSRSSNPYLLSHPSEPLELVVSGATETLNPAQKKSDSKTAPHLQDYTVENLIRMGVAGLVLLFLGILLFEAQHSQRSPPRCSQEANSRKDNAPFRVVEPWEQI
T9 sequence (Q8N6C8 24-439): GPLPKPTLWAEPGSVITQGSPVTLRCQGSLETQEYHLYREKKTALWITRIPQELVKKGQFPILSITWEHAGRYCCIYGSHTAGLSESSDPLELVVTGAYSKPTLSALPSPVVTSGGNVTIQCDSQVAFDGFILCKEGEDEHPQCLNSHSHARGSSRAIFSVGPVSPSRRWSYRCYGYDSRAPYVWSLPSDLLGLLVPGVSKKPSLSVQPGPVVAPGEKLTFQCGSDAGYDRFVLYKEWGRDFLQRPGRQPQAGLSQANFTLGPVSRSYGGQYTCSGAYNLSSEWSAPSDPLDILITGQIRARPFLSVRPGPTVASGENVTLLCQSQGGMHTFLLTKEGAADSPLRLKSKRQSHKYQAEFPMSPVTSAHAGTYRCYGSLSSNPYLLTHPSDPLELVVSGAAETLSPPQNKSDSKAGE
T6 sequence (Q8N149 24-483): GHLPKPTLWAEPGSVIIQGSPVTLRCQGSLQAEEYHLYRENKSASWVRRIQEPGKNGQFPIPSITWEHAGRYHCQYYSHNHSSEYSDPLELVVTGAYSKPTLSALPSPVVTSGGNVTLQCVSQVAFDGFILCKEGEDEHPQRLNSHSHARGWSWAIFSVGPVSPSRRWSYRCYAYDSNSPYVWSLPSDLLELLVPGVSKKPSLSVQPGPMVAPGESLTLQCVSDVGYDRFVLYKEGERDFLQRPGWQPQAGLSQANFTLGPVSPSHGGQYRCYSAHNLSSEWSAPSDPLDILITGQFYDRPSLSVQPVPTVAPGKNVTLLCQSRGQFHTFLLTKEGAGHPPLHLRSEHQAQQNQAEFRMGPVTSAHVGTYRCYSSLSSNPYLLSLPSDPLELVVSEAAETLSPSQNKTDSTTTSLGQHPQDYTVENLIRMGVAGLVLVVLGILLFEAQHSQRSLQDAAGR
T4 sequence (O75023 24-590): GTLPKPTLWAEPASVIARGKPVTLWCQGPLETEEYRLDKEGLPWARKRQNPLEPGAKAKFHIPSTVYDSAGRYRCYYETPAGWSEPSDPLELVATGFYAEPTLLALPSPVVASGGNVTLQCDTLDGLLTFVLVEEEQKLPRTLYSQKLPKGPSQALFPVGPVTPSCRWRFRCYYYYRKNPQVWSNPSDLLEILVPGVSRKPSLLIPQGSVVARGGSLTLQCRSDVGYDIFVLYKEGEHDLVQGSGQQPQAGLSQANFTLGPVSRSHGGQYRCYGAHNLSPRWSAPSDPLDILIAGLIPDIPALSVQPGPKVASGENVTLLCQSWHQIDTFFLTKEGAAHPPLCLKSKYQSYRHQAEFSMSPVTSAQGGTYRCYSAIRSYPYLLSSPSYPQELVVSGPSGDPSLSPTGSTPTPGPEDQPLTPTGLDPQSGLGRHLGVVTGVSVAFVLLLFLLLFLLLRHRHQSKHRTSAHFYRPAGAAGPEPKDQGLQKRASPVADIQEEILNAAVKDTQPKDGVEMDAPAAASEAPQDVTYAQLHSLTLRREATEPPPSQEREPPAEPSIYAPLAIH
T3 sequence (Q6PI73 24-481): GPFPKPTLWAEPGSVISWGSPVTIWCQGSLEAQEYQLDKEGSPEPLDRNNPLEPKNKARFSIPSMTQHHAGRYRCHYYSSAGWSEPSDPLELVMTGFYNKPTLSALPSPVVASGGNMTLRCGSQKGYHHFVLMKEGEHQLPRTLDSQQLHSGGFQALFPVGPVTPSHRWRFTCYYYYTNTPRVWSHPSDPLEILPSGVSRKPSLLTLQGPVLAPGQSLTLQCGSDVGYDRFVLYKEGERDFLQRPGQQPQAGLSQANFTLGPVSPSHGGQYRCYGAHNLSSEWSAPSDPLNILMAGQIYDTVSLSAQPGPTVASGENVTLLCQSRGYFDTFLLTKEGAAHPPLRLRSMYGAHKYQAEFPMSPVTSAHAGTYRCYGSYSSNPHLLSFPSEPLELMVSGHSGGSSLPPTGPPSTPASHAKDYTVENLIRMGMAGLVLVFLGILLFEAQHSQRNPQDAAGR

Row | binding result (human LILRA6) | binding result (human LIR8) | binding result (human LILRA1) | binding result (human LILRA2) | binding result (human ILT2) | binding result (human ILT3) | binding result (human LILRA3) | binding result (human LILRA4) | binding result (human ILT5) | Kd (hILT4-His-Avi tag [4]) | koff (hILT4-His-Avi tag [4]) | kon (hILT4-His-Avi tag [4]) | Kd (hILT4-His-Avi tag [6]) | Binder | further results
1 | no binding (tested: 20 µg/ml) | no binding (tested: 20 µg/ml) | no binding (tested: 20 µg/ml) | no binding (tested: 20 µg/ml) | no binding (tested: 20 µg/ml) | no binding (tested: 20 µg/ml) | no binding (tested: 20 µg/ml) | no binding (tested: 20 µg/ml) | no binding (tested: 20 µg/ml) | – | – | – | – | 21D9.IgG1.1f (antibody, Parent 21D9 in IgG1.1f (L234A, L235E, G237A, A330S, P331S); also called ILT4.6.IgG1.1) heavy: EGQLLESGGDLVQPGGSLRLSCATSGFTFSNYAMNWVRQAPGKGLEWISVISVSGGSTYYADSVKGRFTISRDNSKNTLYLQMNSLRAEDTAVYYCAKDYYYDSGSYYDSFFDYWGQGTLVTVSSASTKGPSVFPLAPSSKSTSGGTAALGCLVKDYFPEPVTVSWNSGALTSGVHTFPAVLQSSGLYSLSSVVTVPSSSLGTQTYICNVNHKPSNTKVDKRVEPKSCDKTHTCPPCPAPEAEGAPSVFLFPPKPKDTLMISRTPEVTCVVVDVSHEDPEVKFNWYVDGVEVHNAKTKPREEQYNSTYRVVSVLTVLHQDWLNGKEYKCKVSNKALPSSIEKTISKAKGQPREPQVYTLPPSREEMTKNQVSLTCLVKGFYPSDIAVEWESNGQPENNYKTTPPVLDSDGSFFLYSKLTVDKSRWQQGNVFSCSVMHEALHNHYTQKSLSLSPGK light: not shown | EC50 [1]: 0.046 µg/mL; IC50 (rhILT4-Fc [2]): 0.918 µg/mL; IC50 (rhILT4-Fc [3]): 2.88 µg/mL
2 | no binding (tested: 20 µg/ml) | no binding (tested: 20 µg/ml) | no binding (tested: 20 µg/ml) | no binding (tested: 20 µg/ml) | no binding (tested: 20 µg/ml) | no binding (tested: 20 µg/ml) | no binding (tested: 20 µg/ml) | no binding (tested: 20 µg/ml) | no binding (tested: 20 µg/ml) | 14 nM and 15 nM | 0.023 s⁻¹ and 0.02 s⁻¹ | 1.6e+06 M⁻¹ s⁻¹ and 1.3e+06 M⁻¹ s⁻¹ | 19 nM and 18 nM | 10F10.IgG1.3 (antibody, V domains shown, Fully human antibody, IgG1.3 heavy chain constant region (L234A, L235E, G237A), kappa light chain; also called 10F10 WT; ILT4.10.IgG1.3) VH: QVQLVESGGGVVQPGRSLRLSCAASGFTFSSYAMHWVRQAPGKGLEWVAIISYDEYNKYYADSVKGRFTISRDNSKNTLYLQMNSLRAEDTAVYYCAREWVGIRYWGQGTLVTVSS VL: AIQLTQSPSSLSASVGDRVTITCRASQGISSALAWFQQKPGKAPKLLIYDASSLESGVPSRFTGSGSGTDFTLTISSLQPEDFATYYCQQFNSYPITFGQGTRLEIKR | EC50 [5]: 0.131 µg/mL; binding result (human LILRA5): no binding (tested: 20 µg/ml); EC50 [7]: 0.0492 µg/mL; EC50 [8]: 0.0279 µg/mL; Kd (hILT4-His-Avi tag [9]): 22 nM; app. act. (hILT4-His-Avi tag [9]): 100%; koff (hILT4-His-Avi tag [9]): 0.026 s⁻¹; kon (hILT4-His-Avi tag [9]): 1.2e+06 M⁻¹ s⁻¹; EC50 [10]: 0.015 µg/mL; IC50 (rhILT4-Fc [11]): 1.55 µg/mL; IC50 (rhILT4-Fc [12]): 3.6 µg/mL
3 | – | – | – | – | – | – | – | – | – | 47 nM | ~0.08 s⁻¹ | 1.7e+06 M⁻¹ s⁻¹ | 52 nM | 10F10.3.IgG1.3 (antibody, V domains shown, Germline reversion mutant of 10F10 (light chain F36Y and T63S); heavy chain of 10F10; IgG1.3; also called ILT4.11.IgG1.3; 10F10.VK-F36Y/T63S.IgG1.3) VH: QVQLVESGGGVVQPGRSLRLSCAASGFTFSSYAMHWVRQAPGKGLEWVAIISYDEYNKYYADSVKGRFTISRDNSKNTLYLQMNSLRAEDTAVYYCAREWVGIRYWGQGTLVTVSS VL: AIQLTQSPSSLSASVGDRVTITCRASQGISSALAWYQQKPGKAPKLLIYDASSLESGVPSRFSGSGSGTDFTLTISSLQPEDFATYYCQQFNSYPITFGQGTRLEIKR | app. act. (hILT4-His-Avi tag [4]): 123%; app. act. (hILT4-His-Avi tag [6]): 115%; fold loss in overall affinity relative to parent 10F10 (hILT4-His-Avi tag [13]): ~3 fold
